Experimental data as given in patent publication US20180100158A1.

Biological target: HLA-E expressed on the surface of HeLa cells (human (endogenous on HeLa cells)) (UniProt P13747)
Test: cell-based or functional assay

UniProt P13747, sequence (P13747 22-358): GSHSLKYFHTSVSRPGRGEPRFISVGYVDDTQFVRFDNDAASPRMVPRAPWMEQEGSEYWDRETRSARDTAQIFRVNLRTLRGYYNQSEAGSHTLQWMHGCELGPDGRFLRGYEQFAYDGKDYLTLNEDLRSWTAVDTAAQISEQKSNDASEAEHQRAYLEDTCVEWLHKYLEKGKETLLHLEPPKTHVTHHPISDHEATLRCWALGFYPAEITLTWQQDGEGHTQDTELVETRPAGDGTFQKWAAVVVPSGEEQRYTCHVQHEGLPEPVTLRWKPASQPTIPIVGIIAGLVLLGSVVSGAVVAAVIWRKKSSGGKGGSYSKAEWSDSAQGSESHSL

“NKG2A receptor on the surface of NK-92 cells (from UniProt P26715 1-233)” was tested, and the percentage of lysis of the target HeLa cells (Calcein release), NKG2A-KO against wild-type NK-92 effector cells (% more target HeLa cells killed) was 10 to 15.
